Measurements as given in patent US20160271244A1 (DUKE UNIVERSITY, published 2016).

Key:
[1] = molecular target: T1, MN gp120 (HIV-1, UniProt P05877 32-513); experiment: ELISA
T1 construct: domain: gp120

[2] = molecular target: SSA; experiment: Athena autoantigen assay, mAb 12.5 ug/ml
[3] = molecular target: RNP; experiment: Athena autoantigen assay, mAb 12.5 ug/ml
[4] = molecular target: Histone; experiment: Athena autoantigen assay, mAb 12.5 ug/ml
[5] = molecular target: SSB; experiment: Athena autoantigen assay, mAb 12.5 ug/ml
[6] = molecular target: Sm; experiment: Athena autoantigen assay, mAb 12.5 ug/ml
[7] = molecular target: T2, Cent B; experiment: Athena autoantigen assay, mAb 12.5 ug/ml
T2 construct: also called centromere B

[8] = molecular target: Scl 70; experiment: Athena autoantigen assay, mAb 12.5 ug/ml
[9] = molecular target: Jo 1; experiment: Athena autoantigen assay, mAb 12.5 ug/ml
[10] = molecular target: SSA; experiment: Athena autoantigen assay, mAb 6.25 ug/ml
[11] = molecular target: RNP; experiment: Athena autoantigen assay, mAb 6.25 ug/ml
[12] = molecular target: Histone; experiment: Athena autoantigen assay, mAb 6.25 ug/ml
[13] = molecular target: SSB; experiment: Athena autoantigen assay, mAb 6.25 ug/ml
[14] = molecular target: Sm; experiment: Athena autoantigen assay, mAb 6.25 ug/ml
[15] = molecular target: T2, Cent B; experiment: Athena autoantigen assay, mAb 6.25 ug/ml
[16] = molecular target: Scl 70; experiment: Athena autoantigen assay, mAb 6.25 ug/ml
[17] = molecular target: Jo 1; experiment: Athena autoantigen assay, mAb 6.25 ug/ml
[18] = molecular target: SSA; experiment: Athena autoantigen assay, mAb 25 ug/ml
[19] = molecular target: RNP; experiment: Athena autoantigen assay, mAb 25 ug/ml
[20] = molecular target: Histone; experiment: Athena autoantigen assay, mAb 25 ug/ml
[21] = molecular target: SSB; experiment: Athena autoantigen assay, mAb 25 ug/ml
[22] = molecular target: Sm; experiment: Athena autoantigen assay, mAb 25 ug/ml
[23] = molecular target: T2, Cent B; experiment: Athena autoantigen assay, mAb 25 ug/ml
[24] = molecular target: Scl 70; experiment: Athena autoantigen assay, mAb 25 ug/ml
[25] = molecular target: Jo 1; experiment: Athena autoantigen assay, mAb 25 ug/ml
[26] = molecular target: T3, HV00044 (6240 TZ5 140C) (HIV-1); experiment: SPR
T3 construct: domain: gp140; also called 624008 TA5 gp140; 6240 transmitted founder Env

[27] = molecular target: T4, A244gD+ gp120 (herpes simplex virus; HIV-1); experiment: SPR
[28] = molecular target: T5, A244gD- gp120 (HIV-1); experiment: SPR
T5 construct: domain: gp120

[29] = molecular target: T6, CM 243 gp120 (HIV-1); experiment: ELISA on monomeric Env
T6 construct: domain: gp120; also called gp120 CM243

[30] = molecular target: T7, HV00046 (902114 B2 140C) (HIV-1); experiment: ELISA on monomeric Env
T7 construct: domain: gp140

[31] = molecular target: T4, A244gD+ gp120; experiment: ELISA on monomeric Env
[32] = molecular target: Env (gp120) of HIV-1 isolate JRFL (virus) (HIV-1); experiment: cell-based or functional assay
[33] = molecular target: Env (gp120) of HIV-1 isolate 7165.18 (HIV-1); experiment: cell-based or functional assay
[34] = molecular target: Env (gp120) of HIV-1 isolate JRCSF (HIV-1, UniProt P20871 32-848); experiment: cell-based or functional assay
[35] = molecular target: Env (gp120) of HIV-1 isolate Q23.17 (HIV-1); experiment: cell-based or functional assay
[36] = molecular target: Env (gp120) of HIV-1 Q23.17.N160K (HIV-1); experiment: cell-based or functional assay
[37] = molecular target: Env (gp120) of HIV-1 JRFL.N160K.E168K (HIV-1); experiment: cell-based or functional assay
[38] = molecular target: Env (gp120) of HIV-1 JRFL.E168K (HIV-1); experiment: cell-based or functional assay
[39] = molecular target: Env (gp120) of HIV-1 7165.18.N160K (HIV-1); experiment: cell-based or functional assay

T2 sequence (P07199 2-599): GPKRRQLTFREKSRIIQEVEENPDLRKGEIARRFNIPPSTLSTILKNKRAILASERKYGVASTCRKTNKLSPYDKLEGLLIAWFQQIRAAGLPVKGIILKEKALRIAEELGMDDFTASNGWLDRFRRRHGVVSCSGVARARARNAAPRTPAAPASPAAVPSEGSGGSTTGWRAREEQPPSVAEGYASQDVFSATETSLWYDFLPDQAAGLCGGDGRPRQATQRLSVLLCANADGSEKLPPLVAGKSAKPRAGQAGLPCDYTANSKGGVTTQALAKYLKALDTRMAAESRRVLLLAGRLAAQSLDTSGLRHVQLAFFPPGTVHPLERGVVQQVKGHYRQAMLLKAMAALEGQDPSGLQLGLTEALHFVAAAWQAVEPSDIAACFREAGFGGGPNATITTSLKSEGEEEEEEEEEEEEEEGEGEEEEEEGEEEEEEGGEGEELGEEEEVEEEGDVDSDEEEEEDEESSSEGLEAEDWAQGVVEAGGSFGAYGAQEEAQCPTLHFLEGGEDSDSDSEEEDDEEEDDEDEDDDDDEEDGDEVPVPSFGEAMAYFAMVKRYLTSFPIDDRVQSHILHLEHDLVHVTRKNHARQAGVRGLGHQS
Jo 1, sequence (P12081 2-509): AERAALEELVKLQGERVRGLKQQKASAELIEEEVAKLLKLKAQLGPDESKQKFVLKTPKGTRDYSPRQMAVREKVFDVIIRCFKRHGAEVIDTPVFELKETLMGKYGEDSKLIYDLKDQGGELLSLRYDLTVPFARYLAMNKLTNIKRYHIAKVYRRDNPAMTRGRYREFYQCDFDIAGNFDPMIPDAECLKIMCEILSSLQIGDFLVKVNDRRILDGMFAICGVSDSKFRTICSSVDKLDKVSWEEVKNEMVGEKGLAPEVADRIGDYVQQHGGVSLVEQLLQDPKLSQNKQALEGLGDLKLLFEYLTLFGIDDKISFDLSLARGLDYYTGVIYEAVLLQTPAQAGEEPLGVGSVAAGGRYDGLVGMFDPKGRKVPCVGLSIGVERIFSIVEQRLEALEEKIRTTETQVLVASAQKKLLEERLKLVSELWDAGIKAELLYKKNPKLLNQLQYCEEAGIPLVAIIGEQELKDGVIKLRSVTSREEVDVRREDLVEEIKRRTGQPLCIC
SSB, sequence (P05455 whole entry): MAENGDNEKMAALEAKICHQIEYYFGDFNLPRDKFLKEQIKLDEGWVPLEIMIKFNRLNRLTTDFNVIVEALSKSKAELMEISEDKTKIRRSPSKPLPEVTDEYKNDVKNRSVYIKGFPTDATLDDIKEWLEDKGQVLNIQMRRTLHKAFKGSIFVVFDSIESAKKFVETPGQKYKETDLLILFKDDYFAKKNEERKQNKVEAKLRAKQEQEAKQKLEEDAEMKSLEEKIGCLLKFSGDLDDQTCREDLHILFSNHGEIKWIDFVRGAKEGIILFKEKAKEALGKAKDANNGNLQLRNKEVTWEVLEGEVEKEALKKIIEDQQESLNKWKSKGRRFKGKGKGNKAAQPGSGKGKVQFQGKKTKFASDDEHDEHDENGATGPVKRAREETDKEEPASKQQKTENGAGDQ

B1: CH01 (antibody, V domains shown)
VH: EVQLVESGANVVRPGGSLRLSCKASGFIFENFGFSWVRQAPGKGLQWVAGLNWNGGDTRYADSVKGRFRMSRDNSRNFVYLDMDKVGVDDTAFYYCARGTDYTIDDAGIHYQGSGTFWYFDLWGRGTLVSVSS
VL: EIVLTQSPGTLSLSPGERATLSCRASHNVHPKYFAWYQQKPGQSPRLLIYGGSTRAAGIPGKFSGSGSGTDFTLTISRVDPEDFAVYYCQQYGGSPYTFGQGTKVEI
notes: also called 1-27-G2; 27G2
binding result [1]: no binding | Athena autoreactivity score [2]: 5 | Athena autoreactivity score [3]: 4.5 | Athena autoreactivity score [4]: 13.5 | Athena autoreactivity score [5]: 5 | Athena autoreactivity score [6]: 3 | Athena autoreactivity score [7]: 10 | Athena autoreactivity score [8]: 2 | Athena autoreactivity score [9]: 2 | Athena autoreactivity score [10]: 5.5 | Athena autoreactivity score [11]: 4 | Athena autoreactivity score [12]: 10 | Athena autoreactivity score [13]: 5.5 | Athena autoreactivity score [14]: 2.5 | Athena autoreactivity score [15]: 7 | Athena autoreactivity score [16]: 1.5 | Athena autoreactivity score [17]: 2 | Athena autoreactivity score [18]: 6.5 | Athena autoreactivity score [19]: 5.5 | Athena autoreactivity score [20]: 17.5 | Athena autoreactivity score [21]: 5.5 | Athena autoreactivity score [22]: 4 | Athena autoreactivity score [23]: 14 | Athena autoreactivity score [24]: 3 | Athena autoreactivity score [25]: 2.5 | Kd [26]: 0.3 µM | Kd [27]: 0.0088 µM | Kd [28]: 0.34 µM | EC50 [29]: 12.7 µM | EC50 [30]: 63.2 µM | EC50 [31]: 7.8 µM | IC50 (virus neutralization) [32]: > 50 µg/mL | IC80 (virus neutralization) [32]: > 50 µg/mL | IC50 (virus neutralization) [33]: 5.82 µg/mL | IC80 (virus neutralization) [33]: > 50 µg/mL | IC50 (virus neutralization) [34]: 0.07 µg/mL | IC80 (virus neutralization) [34]: > 50 µg/mL | IC50 (virus neutralization) [35]: 0.014 µg/mL | IC80 (virus neutralization) [35]: 0.035 µg/mL | IC50 (virus neutralization) [36]: > 50 µg/mL | IC80 (virus neutralization) [36]: > 50 µg/mL | IC50 (virus neutralization) [37]: > 50 µg/mL | IC80 (virus neutralization) [37]: > 50 µg/mL | IC50 (virus neutralization) [38]: 0.044 µg/mL | IC80 (virus neutralization) [38]: 0.382 µg/mL | IC50 (virus neutralization) [39]: > 50 µg/mL | IC80 (virus neutralization) [39]: > 50 µg/mL
